In publication PMC4467794:

Target: Mcx1-3xFLAG, wildtype, purified recombinant (S. cerevisiae) (UniProt P38323)
Test: co-IP

Mcx1-3xFLAG, wildtype, purified recombinant (S. cerevisiae), sequence (P38323 14-520): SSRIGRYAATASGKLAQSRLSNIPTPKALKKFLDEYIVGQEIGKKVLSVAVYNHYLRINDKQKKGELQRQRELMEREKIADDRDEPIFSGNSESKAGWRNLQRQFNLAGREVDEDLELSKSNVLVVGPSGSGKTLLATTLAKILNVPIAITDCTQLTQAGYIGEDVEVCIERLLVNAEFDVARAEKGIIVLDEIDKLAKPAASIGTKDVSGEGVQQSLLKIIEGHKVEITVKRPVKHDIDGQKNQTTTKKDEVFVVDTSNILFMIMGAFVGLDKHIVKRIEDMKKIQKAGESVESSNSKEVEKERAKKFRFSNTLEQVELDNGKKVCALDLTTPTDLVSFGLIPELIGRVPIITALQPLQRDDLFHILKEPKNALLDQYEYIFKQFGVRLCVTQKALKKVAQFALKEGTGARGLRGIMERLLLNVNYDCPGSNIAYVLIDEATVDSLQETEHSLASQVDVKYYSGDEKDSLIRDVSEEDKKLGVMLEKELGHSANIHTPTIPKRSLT

fold amount bound relative to holoHem1: 10 fold
Substance: apoHem1 (PLP-free Hem1, yeast ALA synthase), purified recombinant (from UniProt P09950 23-548) (enzyme)
